Assay [1] deals with T1, synthetic peptide Sub-domain 2 Cys 4&5 ΔS (human, not fully specified; biotin on the added C-terminal lysine).
T1 construct: also called sub-domain 2 cys4&5ΔS mutant
T1 peptide: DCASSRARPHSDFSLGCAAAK
Description: peptide ELISA: biotinylated synthetic peptide on neutravidin plate, antibody titrated (legend: 1-0.0001 µg/ml; axis 'Log (c)'), anti-mouse HRP, TMB, OD 450 nm.

The target in assay [2] is T2, synthetic peptide hFn14 sub-domain 3 (human, cysteine pairing not given here).
T2 construct: also called sub-domain 3 peptide
T2 peptide: ASCRARPHSDFCLGK(Biotin)
Description: ELISA on biotinylated sub-domain 3 peptide, mAb at 0.2 ug/ml. As to the method: An additional lysine residue was added to the C-terminus in order to attach a biotin moiety and to enable the peptides to bind to neutravidin coated plates (Pre-blocked; Pierce). For these experiments, a control peptide with a biotin at the C-terminus was used as a negative control and isotype control antibodies were also used.
The ELISA was performed essentially according to the manufacturer's recommended protocol (Pierce). Briefly, peptide was coated onto wells (in duplicate) at 1-10 μg/ml for 2 hours at room temperature. Wells were washed in PBS/0.05% Tween 20/0.1% BSA 3 times and dilutions of each antibody were added in wash buffer for 1 hour with gentle agitation. After another three washes anti-mouse HRP-conjugated to horse radish peroxidase (HRP; Chemicon) was added at 1/1000 dilution for 1 hour shaking. Finally, after 4 further washes the plate was developed using TMB (3,3′,5,5′-tetramethylbenzidine) substrate (Pierce), and the reaction was stopped using 2M H2SO4 solution. Optical density at 450 nm was quantified using a Spectromax absorbance spectrophotometer.
The reactivity of CRCBT-06-001 CRCBT-06-002, CRCBT-06-003, CRCBT-06-004, CRCBT-06-005, CRCBT-06-006 and CRCBT-06-007 with sub-domain 3 was lower than for sub-domain 2, indicating this region may be a partial epitope for these antibodies. However, the differences in binding to this region could reveal subtle variations in the contact regions of the antibodies with hFn14. The order of binding from strongest to weakest was CRCBT-06-005, CRCBT-06-002, CRCBT-06-001, CRCBT-06-006, CRCBT-06-007 and ITEM-1. The relative binding of each antibody to sub-domain 3 at a single point in the linear region of the curves was measured at 0.2 µg/ml (FIG. 21C). […] This could indicate the epitope of ITEM-1 may differ slightly to the CRCBT antibodies based on weaker interaction with surface exposed residues in sub-domain 3.

Assay [3] deals with phage expressed hFn14 mutant R58A (human, UniProt Q9NP84 28-77). Description: phage ELISA (Method 2), antibody on plate, phage dilution 1/X on the x axis. An excerpt:
FIG. 26 is a graphical representation showing results of an ELISA testing the reactivity of mutant hFn14 phage construct comprising a R58A mutation with the anti-Fn14 monoclonal antibodies CRCBT-06-001, CRCBT-06-002, CRCBT-06-004 compared to ITEM-1 and ITEM-4. Binding was detected using Biotin-conjugated anti-M13-phage monoclonal antibody followed by HRP-conjugated Streptavidin and TMB substrate. Optical density at 450 nm was quantified using a Spectramax spectrophotometer. Error bars for each dilution represent the standard deviation of duplicate assays. X axis=dilution of phage. Methods according to Epitope mapping using phage expressed Fn14—Method 2
The wells of Maxisorp immunoplates (Nunc) were coated overnight at 4° C. with the target monoclonal antibodies or recombinant Tweak-Fc at a concentration of 1.5 μg/ml in PBS. mAb 5G8 was used as a negative control for ELISA plates coated with tested antibodies. […] 10-fold serial dilutions of phage were made using PBS solution and phage dilutions were added to the coated, blocked ELISA plates for 1 hour, shaking at room temperature. […]
Method A: HRP-conjugated anti-M13-phage antibody (GE Healthcare) at a 1/5000 dilution in PBS was then added to the wells of the ELISA plates for 1 hour, shaking at room temperature. […] Optical density at 450 nm was quantified using a Spectramax absorbance spectrophotometer.

For assay [4], the target named is T3, Histidine tagged mouse Fn14 extracellular domain (mouse, UniProt Q9CR75 28-80).
T3 construct: extracellular domain; also called mFn14; not shown: (His)6 tag from pET-15b
T3 sequence (looked up): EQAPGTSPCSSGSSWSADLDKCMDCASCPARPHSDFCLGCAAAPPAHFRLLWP
The experiment in a line: ELISA with purified His-tagged mouse Fn14; x axis 'Log (c)' without unit, µg/ml by the legend.

Assay [5] has as its target T4, synthetic peptide hFn14 sub-domain 2 (human, biotin on the added C-terminal lysine; disulfide bonds as in the solution structure of He et al. 2009).
T4 construct: also called sub-domain 2 peptide
T4 peptide: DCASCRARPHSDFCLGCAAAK
Description: ELISA, synthetic biotin peptide on neutravidin plate; antibody concentration not given. The text has this:
FIG. 21B is a graphical representation showing reactivity of anti-Fn14 mAbs CRCBT-06-001, CRCBT-06-002, CRCBT-06-003, CRCBT-06-004, CRCBT-06-005, CRCBT-06-006, CRCBT-06-007 and ITEM-1 with a synthetic peptide representing sub-domain 2 of Fn14. Plates were coated with sub-domain 2 peptide and various dilutions of antibody were allowed to bind, bound antibody was detected with anti-mouse HRP and TMB substrate. The average of duplicate readings are plotted, error bars represent standard deviations. The ELISA was repeated to ensure consistent results. The vertical line at 5 ng/ml within the linear part of the curves is the point at which a comparison of the reactivity of each mAb was analyzed.
The ELISA was performed essentially according to the manufacturer's recommended protocol (Pierce). Briefly, peptide was coated onto wells (in duplicate) at 1-10 μg/ml for 2 hours at room temperature. Wells were washed in PBS/0.05% Tween 20/0.1% BSA 3 times and dilutions of each antibody were added in wash buffer for 1 hour with gentle agitation. After another three washes anti-mouse HRP-conjugated to horse radish peroxidase (HRP; Chemicon) was added at 1/1000 dilution for 1 hour shaking. […] Optical density at 450 nm was quantified using a Spectromax absorbance spectrophotometer.

Ends that are not written are not given here. * marks the point of attachment. Biotin = O=C1N[C@H]2[C@H](CS[C@H]2CCCCC(=O)*)N1

B1: CRCBT-06-001 (antibody, IgG2b, V domains shown)
VH: QVQLQQSGGGLVQPGGSMKLSCIASGFTFSSYWMSWVRQSPEKGLEWVAEIRSKSDNYATHYAESVKGKFTISRDDSKSRFFLQMNNLRAEDTGIYYCSSTYADYFHYWGQGTDLTVSS
VL: DIVMTQTPASLAVSLGQRATISCRASQSVSTSTYSYMHWYQQKPGQPPKLLIKYASSLESGVPARFSGSGSGTDFTLNIHPVEEDDTATYYCQHSWEIPYTFGGGTKLEIKR
Consider B1, for which the binding result in assay [1], in assay [3], in assay [4] and in assay [5] was “binds” each time. Moreover, in assay [2], the “% decrease in binding compared with CRCBT-06-005” value was 60%.

B2: CRCBT-06-002 (antibody, IgG1, V domains shown)
VH: EVKLQQSGGGLVQPGGSMKLSCVASGFTFSYYWMNWVRQSPEQGLEWIAEIRLQSNDYPTHYAESVKGRFTISRDDSKNSVYLQMNNLRPEDTGIYYCACRYADYFDHWGQGTTLTVSS
VL: DTVLTQSPASLVVSLGQRATISCRASQSVSTSDYSYIHWYQQKPGQPPKFLIKYASNRDSGVPARFSGSGSGTDFTLNIHPVEEDDTAIYYCQHSWEIPPTFGAGTKLELQR
Consider B2, for which the binding result in assay [1], in assay [3], in assay [4] and in assay [5] was “binds” in each case. Besides, in assay [2], the “% decrease in binding compared with CRCBT-06-005” value worked out at 43%.
